Test results: PMC4864278 (The EMBO Journal, 2016)

Key:
[1] = target: the molecule itself; test: SAXS; SEC in line with SAXS, SWING beamline at SOLEIL, SEC-3 300 Å Agilent column, 15°C; 2.5 mg/ml TRIM25 RBCC, 6 mg/ml TRIM32 RBCC injected
[2] = target: the molecule itself; test: SAXS; batch SAXS, Diamond Light Source beamline B21; at least three dilutions of each construct; concentrations as in Table 2
ubiquitin = ubiquitin (bovine, UniProt P0CG53 1-76, isopeptide-linked to UBE2D1); test: crystal structure; TRIM25 RING domain (8 mg/ml) mixed with isopeptide-linked UBE2D1-Ub (10 mg/ml) at a 1:1 molar ratio; 100 mM Tris pH 8.5, 10% PEG 20,000, 18°C; 2.34 Å; settings: both partners purified

Binder	stoichiometry N [1]	also measured
TRIM25 RBCC (1–433) (domain or fragment, UniProt Q14258 1-433, looked up) MAELCPLAEELSCSICLEPFKEPVTTPCGHNFCGSCLNETWAVQGSPYLCPQCRAVYQARPQLHKNTVLCNVVEQFLQADLAREPPADVWTPPARASAPSPNAQVACDHCLKEAAVKTCLVCMASFCQEHLQPHFDSPAFQDHPLQPPVRDLLRRKCSQHNRLREFFCPEHSECICHICLVEHKTCSPASLSQASADLEATLRHKLTVMYSQINGASRALDDVRNRQQDVRMTANRKVEQLQQEYTEMKALLDASETTSTRKIKEEEKRVNSKFDTIYQILLKKKSEIQTLKEEIEQSLTKRDEFEFLEKASKLRGISTKPVYIPEVELNHKLIKGIHQSTIDLKNELKQCIGRLQEPTPSSGDPGEHDPASTHKSTRPVKKVSKEEKKSKKPPPVPALPSKLPTFGAPEQLVDLKQAGLEAAAKATSSHPNS	2	–
TRIM32 RING/B-box2 (1–140) (domain or fragment, UniProt Q13049 1-140, looked up) MAAAAASHLNLDALREVLECPICMESFTEEQLRPKLLHCGHTICRQCLEKLLASSINGVRCPFCSKITRITSLTQLTDNLTVLKIIDTAGLSEAVGLLMCRSCGRRLPRQFCRSCGLVLCEPCREADHQPPGHCTLPVKE	–	stoichiometry N [2]: 2
TRIM32 RBCC (1–354) (domain or fragment, UniProt Q13049 1-354, looked up) MAAAAASHLNLDALREVLECPICMESFTEEQLRPKLLHCGHTICRQCLEKLLASSINGVRCPFCSKITRITSLTQLTDNLTVLKIIDTAGLSEAVGLLMCRSCGRRLPRQFCRSCGLVLCEPCREADHQPPGHCTLPVKEAAEERRRDFGEKLTRLRELMGELQRRKAALEGVSKDLQARYKAVLQEYGHEERRVQDELARSRKFFTGSLAEVEKSNSQVVEEQSYLLNIAEVQAVSRCDYFLAKIKQADVALLEETADEEEPELTASLPRELTLQDVELLKVGHVGPLQIGQAVKKPRTVNVEDSWAMEATASAASTSVTFREMDMSPEEVVASPRASPAKQRGPEAASNIQQ	4	–
TRIM25 RING domain (1–82) (domain or fragment, UniProt Q14258 1-82, looked up) MAELCPLAEELSCSICLEPFKEPVTTPCGHNFCGSCLNETWAVQGSPYLCPQCRAVYQARPQLHKNTVLCNVVEQFLQADLA	–	binding result (ubiquitin): binds
